Consider six proteins from patent publication US20180009908.

This data set can be described thus: LCMS, IgG1 BsAb co-expression; HCB homodimer species.
[1] abbreviates: pertuzumab × matuzumab bispecific.

Read-outs that look alike come from different tables or passages of the source.

B1: matuzumab HC_20.8.34_B + matuzumab LC (IgG1) (protein)
chain 1: QVQLVQSGAEVKKPGASVKVSCKASGYTFTSHWMHWVRYAPGQGLEWIGEFNPSNGRTNYNEKFKSKATMTVDTSTNTAYMELSSLRSEDTAVYYCASRDYDYDGRYFDYWGRGTLVTVSSASTKGPSVFPLAPCSKSTSGGTAALGCLVKDYFPEPVTVSWNSGALTSGVHTFPAVLQSSGLYSLSSVVTVPSSSLGTQTYICNVNHKPSNTKVDKKVEPDSGDKTHTCPPCPAPELLGGPSVFLFPPKPKDTLMISRTPEVTCVVVDVSHEDPEVKFNWYVDGVEVHNAKTKPREEQYNSTYRVVSVLTVLHQDWLNGKEYKCKVSNKALPAPIEKTISKAKGQPREPQVYTLPPSRGDMTKNQVQLTCLVKGFYPSDIAVEWESNGQPENNYKTTPPVLDSDGSFFLASKLTVDKSRWQQGNVFSCSVMHEALHNHYTQKSLSLSPGK
chain 2: DIQMTQSPSSLSASVGDRVTITCSASSSVTYMYWYQRKPGDAPKLLIYDTSNLASGVPSRFSGSGSGTDYTFTISSLQPEDIATYYCQQWSSHIFTFGQGTKVEIKRTVAAPSVFIFPPSKEQLKSGTASVVCLLNNFYPREAKVQWKVDNALQSGNSQESVTEQDSKDSTYSLSSTLTLSKADYEKHKVYACEVTHQGLSSPVTKSFNRGEC
Regarding B1, the % BB Homodimer (incorrect assembly) (MetMAb × matuzumab bispecific) is 0% and the % BB Homodimer (incorrect assembly) under setting [1] came out at 1.6%.

B2: matuzumab HC_20.8.37_B + matuzumab LC (IgG1) (protein)
chain 1: QVQLVQSGAEVKKPGASVKVSCKASGYTFTSHWMHWVRYAPGQGLEWIGEFNPSNGRTNYNEKFKSKATMTVDTSTNTAYMELSSLRSEDTAVYYCASRDYDYDGRYFDYWGRGTLVTVSSASTKGPSVFPLAPCSKSTSGGTAALGCLVKDYFPEPVTVSWNSGALTSGVHTFPAVLQSSGLYSLSSVVTVPSSSLGTQTYICNVNHKPSNTKVDKKVEPDSGDKTHTCPPCPAPELLGGPSVFLFPPKPKDTLMISRTPEVTCVVVDVSHEDPEVKFNWYVDGVEVHNAKTKPREEQYNSTYRVVSVLTVLHQDWLNGKEYKCKVSNKALPAPIEKTISKAKGQPREPQVYTLPPSREDMTKNQVRLTCLVKGFYPSDIAVEWESNGQPENNYKTTPPVLDSDGSFFLASKLTVDKSRWQQGNVFSCSVMHEALHNHYTQKSLSLSPGK
chain 2: DIQMTQSPSSLSASVGDRVTITCSASSSVTYMYWYQRKPGDAPKLLIYDTSNLASGVPSRFSGSGSGTDYTFTISSLQPEDIATYYCQQWSSHIFTFGQGTKVEIKRTVAAPSVFIFPPSKEQLKSGTASVVCLLNNFYPREAKVQWKVDNALQSGNSQESVTEQDSKDSTYSLSSTLTLSKADYEKHKVYACEVTHQGLSSPVTKSFNRGEC
In the case of B2, the % BB Homodimer (incorrect assembly) (MetMAb × matuzumab bispecific) is 0% and the % BB Homodimer (incorrect assembly) under setting [1] was 0.5%.

B3: matuzumab HC_7.8.60_B + matuzumab LC (IgG1) (protein)
chain 1: QVQLVQSGAEVKKPGASVKVSCKASGYTFTSHWMHWVRYAPGQGLEWIGEFNPSNGRTNYNEKFKSKATMTVDTSTNTAYMELSSLRSEDTAVYYCASRDYDYDGRYFDYWGRGTLVTVSSASTKGPSVFPLAPCSKSTSGGTAALGCLVKDYFPEPVTVSWNSGALTSGVHTFPAVLQSSGLYSLSSVVTVPSSSLGTQTYICNVNHKPSNTKVDKKVEPDSGDKTHTCPPCPAPELLGGPSVFLFPPKPKDTLMISRTPEVTCVVVDVSHEDPEVKFNWYVDGVEVHNAKTKPREEQYNSTYRVVSVLTVLHQDWLNGKEYKCKVSNKALPAPIEKTISKAKGQPRRPRVYTLPPSREEMTKNQVSLVCLVKGFYPSDIAVEWESNGQPENNYKTTPPVLDSDGSFFLYSVLTVDKSRWQQGNVFSCSVMHEALHNHYTQKSLSLSPGK
chain 2: DIQMTQSPSSLSASVGDRVTITCSASSSVTYMYWYQRKPGDAPKLLIYDTSNLASGVPSRFSGSGSGTDYTFTISSLQPEDIATYYCQQWSSHIFTFGQGTKVEIKRTVAAPSVFIFPPSKEQLKSGTASVVCLLNNFYPREAKVQWKVDNALQSGNSQESVTEQDSKDSTYSLSSTLTLSKADYEKHKVYACEVTHQGLSSPVTKSFNRGEC
For B3, the % BB Homodimer (incorrect assembly) worked out at 1.3%.

B4: BHA10 HC_7.8.60_B + BHA10 LC (IgG1) (protein)
chain 1: QVQLVQSGAEVKKPGSSVKVSCKASGYTFTTYYLHWVRYAPGQGLEWMGWIYPGNVHAQYNEKFKGRVTITADKSTSTAYMELSSLRSEDTAVYYCARSWEGFPYWGRGTTVTVSSASTKGPSVFPLAPCSKSTSGGTAALGCLVKDYFPEPVTVSWNSGALTSGVHTFPAVLQSSGLYSLSSVVTVPSSSLGTQTYICNVNHKPSNTKVDKKVEPDSGDKTHTCPPCPAPELLGGPSVFLFPPKPKDTLMISRTPEVTCVVVDVSHEDPEVKFNWYVDGVEVHNAKTKPREEQYNSTYRVVSVLTVLHQDWLNGKEYKCKVSNKALPAPIEKTISKAKGQPRRPRVYTLPPSREEMTKNQVSLVCLVKGFYPSDIAVEWESNGQPENNYKTTPPVLDSDGSFFLYSVLTVDKSRWQQGNVFSCSVMHEALHNHYTQKSLSLSPGK
chain 2: DIQMTQSPSSLSASVGDRVTITCKASQNVGINVAWYQRKPGDAPKSLISSASYRYSGVPSRFSGSGSGTDFTLTISSLQPEDFATYFCQQYDTYPFTFGQGTKVEIKRTVAAPSVFIFPPSKEQLKSGTASVVCLLNNFYPREAKVQWKVDNALQSGNSQESVTEQDSKDSTYSLSSTLTLSKADYEKHKVYACEVTHQGLSSPVTKSFNRGEC
Turning to B4, the % BB Homodimer (incorrect assembly) worked out at 1.6%.

B5: BHA10 HC_20.8.34_B + BHA10 LC (IgG1) (protein)
chain 1: QVQLVQSGAEVKKPGSSVKVSCKASGYTFTTYYLHWVRYAPGQGLEWMGWIYPGNVHAQYNEKFKGRVTITADKSTSTAYMELSSLRSEDTAVYYCARSWEGFPYWGRGTTVTVSSASTKGPSVFPLAPCSKSTSGGTAALGCLVKDYFPEPVTVSWNSGALTSGVHTFPAVLQSSGLYSLSSVVTVPSSSLGTQTYICNVNHKPSNTKVDKKVEPDSGDKTHTCPPCPAPELLGGPSVFLFPPKPKDTLMISRTPEVTCVVVDVSHEDPEVKFNWYVDGVEVHNAKTKPREEQYNSTYRVVSVLTVLHQDWLNGKEYKCKVSNKALPAPIEKTISKAKGQPREPQVYTLPPSRGDMTKNQVQLTCLVKGFYPSDIAVEWESNGQPENNYKTTPPVLDSDGSFFLASKLTVDKSRWQQGNVFSCSVMHEALHNHYTQKSLSLSPGK
chain 2: DIQMTQSPSSLSASVGDRVTITCKASQNVGINVAWYQRKPGDAPKSLISSASYRYSGVPSRFSGSGSGTDFTLTISSLQPEDFATYFCQQYDTYPFTFGQGTKVEIKRTVAAPSVFIFPPSKEQLKSGTASVVCLLNNFYPREAKVQWKVDNALQSGNSQESVTEQDSKDSTYSLSSTLTLSKADYEKHKVYACEVTHQGLSSPVTKSFNRGEC
B5 yielded a % BB Homodimer (incorrect assembly) of 0%.

B6: BHA10 HC_20.8_B + BHA10 LC (IgG1) (protein)
chain 1: QVQLVQSGAEVKKPGSSVKVSCKASGYTFTTYYLHWVRYAPGQGLEWMGWIYPGNVHAQYNEKFKGRVTITADKSTSTAYMELSSLRSEDTAVYYCARSWEGFPYWGRGTTVTVSSASTKGPSVFPLAPCSKSTSGGTAALGCLVKDYFPEPVTVSWNSGALTSGVHTFPAVLQSSGLYSLSSVVTVPSSSLGTQTYICNVNHKPSNTKVDKKVEPDSGDKTHTCPPCPAPELLGGPSVFLFPPKPKDTLMISRTPEVTCVVVDVSHEDPEVKFNWYVDGVEVHNAKTKPREEQYNSTYRVVSVLTVLHQDWLNGKEYKCKVSNKALPAPIEKTISKAKGQPREPQVYTLPPSREDMTKNQVQLTCLVKGFYPSDIAVEWESNGQPENNYKTTPPVLDSDGSFFLASKLTVDKSRWQQGNVFSCSVMHEALHNHYTQKSLSLSPGK
chain 2: DIQMTQSPSSLSASVGDRVTITCKASQNVGINVAWYQRKPGDAPKSLISSASYRYSGVPSRFSGSGSGTDFTLTISSLQPEDFATYFCQQYDTYPFTFGQGTKVEIKRTVAAPSVFIFPPSKEQLKSGTASVVCLLNNFYPREAKVQWKVDNALQSGNSQESVTEQDSKDSTYSLSSTLTLSKADYEKHKVYACEVTHQGLSSPVTKSFNRGEC
For B6, the % BB Homodimer (incorrect assembly) amounted to 0%.
